Data: patent publication US20210388112A1

Target: T1, peptide containing GA-pyridine (Biotin-Gly-Ala-Gly-(GA-pyridine)-Gly-Ala-CONH2)
T1 chain: GAGXGA
Test: SPR (Biacore T200), peptide immobilised on sensor chip SA, 25 C

B1: cyclic Y9-scFv cyclized by sortase (scFv)
scFv: GGGSHMAQVKLQQSGPSLVKPSQTLSLTCSVTGDSITSGYWNWIRKFPGNKFEYLGYISYSGRTYYNPSLKSRISITRDTSKNQYYLQLNSVTTEDTATYYCSRPYYRYDYAIDYWGQGTTVTVSSGGGGSGGGGSGGGGSDIELTQSPAIMSASLGEQVTMTCTASSSVSSSYLHWYQQKPGSSPKLWIYSTSNLASGVPARFSSSGSGTSYSLTISRMEAEDAATYYCQQSWKAPYTFGGGTKLEIKRAAAGTHHHHHHLPET
modifications: not checked
Kd: 16.1 nM
